Here are results for two molecules from paper PMC4599368 (Cell reports, 2015).

Data set [1] has as its system ΔNPNTD (NP 25-457) (Zaire ebolavirus (EBOV)). The data set can be described thus: filter binding.
Data set [2] deals with the molecule itself. Description: SEC. (In general: SEC sorts molecules by how far they enter the pores of the column.)

In general, Kd refers to the concentration at which binding is half-saturated. Read a high Kd as a looser complex.

In data set [1], 20 nt ssRNA returned a Kd of 620 nM.

B1: EBOV NP residues 1–457 (NPNTD) (domain or fragment)
chain: MDSRPQKIWMAPSLTESDMDYHKILTAGLSVQQGIVRQRVIPVYQVNNLEEICQLIIQAFEAGVDFQESADSFLLMLCLHHAYQGDYKLFLESGAVKYLEGHGFRFEVKKRDGVKRLEELLPAVSSGKNIKRTLAAMPEEETTEANAGQFLSFASLFLPKLVVGEKACLEKVQRQIQVHAEQGLIQYPTAWQSVGHMMVIFRLMRTNFLIKFLLIHQGMHMVAGHDANDAVISNSVAQARFSGLLIVKTVLDHILQKTERGVRLHPLARTAKVKNEVNSFKAALSSLAKHGEYAPFARLLNLSGVNNLEHGLFPQLSAIALGVATAHGSTLAGVNVGEQYQQLREAATEAEKQLQQYAESRELDHLGLDDQEKKILMNFHQKKNEISFQQTNAMVTLRKERLAKLTEAITAASLPKTSGHYDDDDDIPFPGPINDDDNPGHQDDDPTDSQDTTIPDV
In the case of B1, in data set [2], the binding result is reported as “binds”.
